Results on 39 sequences are retold here after the supplement of paper PMC7877785.

This series is described as follows: self-splicing fitness, log relative to wild type (ln ratio); higher = more splicing; Tetrahymena group I intron in knt gene, E. coli kanamycin selection, DiMSum; sequences stand for … in CUCUCU…GGAGGGAAAAGUUAUCAGGCAUGCACCUGGUAGCUAGUCUUUAAACCAAUAGAUUGCAUCGGUUUAAAAGGCAAGACCGUCAAAUUGCGGGAAAGGGGUCAACAGCCGUUCAGUACCAAGUCUCAGGGGAAACUUUGAGAUGGCCUUGCAAAGGGUAUGGUAAUAAGCUGACGGACAUGGUCCUAACCACGCAGCCAAGUCCUAAGUCAACAGAUCUUCUGUUGAUAUGGAUGCAGUUCACAGACUAAAUGUCGGUCGGGGAAGAUGUAUUCUUCUCAUAAGAUAUAGUCGGACCUCUCCUUAAUGGGAGCUAGCGGAUGAAGUGAUGCAACACUGGAGCCGCUGGGAACUAAUUUGUAUGCGAAAGUAUAUUGAUUAGUUUUGGAGUACUCGUGGUCG
Summed up: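 Fitness was computed with DiMSum as the error-weighted combination of replicate fold changes, kanamycin versus none, each normalised to wild type. The library randomised all eight intron nucleotides of the P1ex region, with the intron placed in the knt kanamycin-resistance gene on pET-22b(+) in E. coli BL21(DE3). Six replicate transformations were grown overnight at 37°C or 30°C on LB agar with or without 25 μg/mL kanamycin, plus 100 μg/mL carbenicillin, 50 μM IPTG and 0.2% rhamnose. Pooled colonies were amplicon-sequenced on an Illumina HiSeq 2500.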

± gives the uncertainty stated by the source.

Take AUGAAGCAAUAUUACGCGAU: the “self-splicing fitness (ln)” value by setting is: (30 °C) -2.89 ± 0.21; (37 °C) -1.59 ± 0.23.
On to CCUAAGCAAUAUUACGGCGC, for which the “self-splicing fitness (ln)” value was -3.12 ± 0.29 (30 °C) and -3.22 ± 0.33 (37 °C).
Consider CGUGAGCAAUAUUACGGACA, for which the “self-splicing fitness (ln)” value (30 °C) was -1.29 ± 0.16 and the “self-splicing fitness (ln)” value (37 °C) is -0.944 ± 0.19.
Turning to UACCAGCAAUAUUACGGCUG, the “self-splicing fitness (ln)” value runs as follows: (30 °C) -3.63 ± 0.14; (37 °C) -2 ± 0.15.
For the sequence CGUAAGCAAUAUUACGACCU, the “self-splicing fitness (ln)” value is -1.97 ± 0.17 (30 °C) and -0.549 ± 0.16 (37 °C).
On the same counts, the results for CUAUAGCAAUAUUACGUGGA are -2.83 ± 0.19 and -2.4 ± 0.27.
For UCCCAGCAAUAUUACGUCAU, the “self-splicing fitness (ln)” value is, setting by setting: (30 °C) -4.04 ± 0.2; (37 °C) -2.09 ± 0.18.
For UGUUAGCAAUAUUACGGUUA, the “self-splicing fitness (ln)” value was -0.39 ± 0.086 (30 °C) and 0.504 ± 0.088 (37 °C).
CUGGAGCAAUAUUACGUGUA: the “self-splicing fitness (ln)” value is -3.32 ± 0.32 (30 °C) and -1.57 ± 0.37 (37 °C).
Turning to UUUAAGCAAUAUUACGGCGC, the “self-splicing fitness (ln)” value reads like this: (30 °C) -1.15 ± 0.17; (37 °C) -0.784 ± 0.23.
On the same counts, the results for CGCUAGCAAUAUUACGUAGA are -2.69 ± 0.14 and -1.54 ± 0.19.
As for AUUUAGCAAUAUUACGCUUA, the “self-splicing fitness (ln)” value is, setting by setting: (30 °C) -1.99 ± 0.17; (37 °C) -0.321 ± 0.19.
For the sequence AACUAGCAAUAUUACGCGGG, the “self-splicing fitness (ln)” value is, setting by setting: (30 °C) -2.78 ± 0.15; (37 °C) -2.37 ± 0.19.
Turning to UUUAAGCAAUAUUACGCCAU, the “self-splicing fitness (ln)” value (37 °C) was -2.36 ± 0.29.
Turning to UAGAAGCAAUAUUACGGUAU, the “self-splicing fitness (ln)” value is, setting by setting: (30 °C) -3.08 ± 0.2; (37 °C) -2.55 ± 0.17.
For UACUAGCAAUAUUACGUGGC, the “self-splicing fitness (ln)” value by setting is: (30 °C) -2.44 ± 0.18; (37 °C) -2.91 ± 0.28.
Consider CCACAGCAAUAUUACGAUGC, for which the “self-splicing fitness (ln)” value is -3.7 ± 0.17 (30 °C) and -2.66 ± 0.21 (37 °C).
For UCAUAGCAAUAUUACGGGUU, the “self-splicing fitness (ln)” value by setting is: (30 °C) -4.83 ± 0.36; (37 °C) -3.34 ± 0.25.
As to CCACAGCAAUAUUACGAAAC, the “self-splicing fitness (ln)” value is -2.27 ± 0.29 (30 °C) and -1.8 ± 0.34 (37 °C).
On to UUGCAGCAAUAUUACGUUAC, for which the “self-splicing fitness (ln)” value is, setting by setting: (30 °C) -2.77 ± 0.15; (37 °C) -2.18 ± 0.17.
AGGAAGCAAUAUUACGGCAC: the “self-splicing fitness (ln)” value by setting is: (30 °C) -1.55 ± 0.14; (37 °C) -0.99 ± 0.14.
For the sequence AAUGAGCAAUAUUACGUACU, the “self-splicing fitness (ln)” value was -0.657 ± 0.12 (30 °C) and -0.978 ± 0.16 (37 °C).
For the sequence GAAGAGCAAUAUUACGGUGA, the “self-splicing fitness (ln)” value runs as follows: (30 °C) -2.47 ± 0.16; (37 °C) -1.02 ± 0.096.
Turning to GCUUAGCAAUAUUACGAGGC, where the note is “37 °C”, the “self-splicing fitness (ln)” value was -1.93 ± 0.41.
Regarding UGUAAGCAAUAUUACGGUGU, the “self-splicing fitness (ln)” value runs as follows: (30 °C) -3.61 ± 0.22; (37 °C) -0.0793 ± 0.17.
GAGCAGCAAUAUUACGAAGU: the “self-splicing fitness (ln)” value was -2.87 ± 0.21 (30 °C) and -0.867 ± 0.16 (37 °C).
Take UCCGAGCAAUAUUACGGACU: the “self-splicing fitness (ln)” value (30 °C) was -3.56 ± 0.21 and the “self-splicing fitness (ln)” value (37 °C) is -2.02 ± 0.14.
In the same order, the values of UGUUAGCAAUAUUACGUGUA are -2.88 ± 0.16 and -0.349 ± 0.1.
With CUAUAGCAAUAUUACGGCCA, the “self-splicing fitness (ln)” value (37 °C) is -3.35 ± 0.43.
In the case of CUGAAGCAAUAUUACGGCUA, the “self-splicing fitness (ln)” value was -3.03 ± 0.25 (30 °C) and -1.22 ± 0.25 (37 °C).
Consider UAGUAGCAAUAUUACGAUCA, for which the “self-splicing fitness (ln)” value by setting is: (30 °C) -0.544 ± 0.088; (37 °C) 0.306 ± 0.12.
Turning to GACCAGCAAUAUUACGGGAC, the “self-splicing fitness (ln)” value is, setting by setting: (30 °C) -2.5 ± 0.092; (37 °C) -1.03 ± 0.092.
With UUAUAGCAAUAUUACGGAUA, the “self-splicing fitness (ln)” value (30 °C) was -2.21 ± 0.32 and the “self-splicing fitness (ln)” value (37 °C) is -0.955 ± 0.19.
Take UUAAAGCAAUAUUACGGCUA: the “self-splicing fitness (ln)” value was determined as 0.185 ± 0.091 (30 °C) and 0.424 ± 0.12 (37 °C).
With UUAAAGCAAUAUUACGUUCU, the “self-splicing fitness (ln)” value was -1.08 ± 0.091 (30 °C) and -0.401 ± 0.12 (37 °C).
As for UGAGAGCAAUAUUACGGUGC, under “30 °C”, the “self-splicing fitness (ln)” value is -2.02 ± 0.21.
As for CCUGAGCAAUAUUACGUUCC, the “self-splicing fitness (ln)” value by setting is: (30 °C) -2.52 ± 0.28; (37 °C) -2.5 ± 0.42.
Turning to AUAGAGCAAUAUUACGCGAA, the “self-splicing fitness (ln)” value is -1.34 ± 0.093 (30 °C) and -1.1 ± 0.11 (37 °C).
As for UAUUAGCAAUAUUACGGACA, the “self-splicing fitness (ln)” value is -1.16 ± 0.2 (30 °C) and 0.703 ± 0.28 (37 °C).
